Data: patent US20210017287A1 (published 2021)
Positions count from the first letter of the chain named.

B1: 42G2 (scFv, V domains shown)
VH: EVQLVESGGGLSQPGNSLQLSCEASGFTFSNHDLNWVRQAPGKGLEWVAYISSASGLISYADAVRGRFTISRDNAKNSLFLQMNNLKSEDTAMYYCARDPPYSGLYALDFWGQGTQVTVSS
VL: QPVLTQSPSASASLSGSVKLTCTLSSELSWYTIVWYQQRPDKAPKYVMYLKSDGSHSKGDGIPDRFSGSSSGAHRYLSISNVQSEDDATYFCGAGYTLAGQYGWVFGSGTKVTVL
notes: scFv
B2: 1F10 (scFv, V domains shown)
VH: B1 VH with P101A, S103T
VL: B1 VL with W30N, Y31F, G100S
notes: scFv; Frameworks and unchanged CDRs are those of the parental clone
B3: 2A5 (scFv, V domains shown)
VH: B1 VH with P101A, S103T
VL: B1 VL with W30N, Y31F, A94M, G100N
notes: as for B2
B4: 3G4 (scFv, V domains shown)
VH: B1 VH with P101A, S103T
VL: B1 VL with W30G, Y31F, G100R
notes: as for B2
B5: 4B6 (scFv, V domains shown)
VH: B1 VH with P101A, S103T
VL: B1 VL with W30N, G100N
notes: as for B2
B6: 5A6 (scFv, V domains shown)
VH: B1 VH with S103T
VL: B1 VL with W30N, Y31F, G100N
notes: as for B2
B7: 5E1 (scFv, V domains shown)
VH: B1 VH with P101A, S103T
VL: B1 VL with W30N, A94M, G100N
notes: as for B2
B8: 6G11 (scFv, V domains shown)
VH: B1 VH
VL: B1 VL with W30N, Y31F
notes: as for B2
B9: 9A5 (scFv, V domains shown)
VH: B1 VH with P101A, S103T
VL: B1 VL with W30G, Y31F, G100N
notes: as for B2
B10: 9G2 (scFv, V domains shown)
VH: B1 VH with P101A, S103T
VL: B1 VL
notes: as for B2
B11: 10B8 (scFv, V domains shown)
VH: B1 VH with P101A
VL: B1 VL with W30N, Y31F
notes: as for B2
B12: W3072-z4C12-scFv (scFv, V domains shown)
VH: B1 VH
VL: B1 VL with W30S
notes: scFv (captured by anti-c-myc antibody); also called WT; wild-type
B13: 10C3 (scFv, V domains shown)
VH: B1 VH with A54D
VL: B1 VL with W30S
notes: scFv
B14: 12F7 (scFv, V domains shown)
VH: B1 VH with G56Q
VL: B1 VL with W30S
notes: scFv; Position 12 is a library position read from the clone ID
B15: 42H8 (scFv, V domains shown)
VH: B1 VH
VL: B1 VL with W30Y
B16: 42F9 (scFv, V domains shown)
VH: B1 VH
VL: B1 VL with W30F
B17: 43F11 (scFv, V domains shown)
VH: B1 VH
VL: B1 VL with W30S, Y31F
B18: 66B8 (scFv, V domains shown)
VH: B1 VH
VL: B1 VL with W30S, G100N

target: T1, TNFRSF25-Fc fusion protein (UniProt Q93038 25-199, limits assumed, biotinylated in the capture ELISA (site not stated)); assay: capture ELISA of scFv, against W3072-z4C12-scFv
T1 construct: also called TNFRSF25-Fc protein; biotinylated antigen protein; not shown: Fc part
T1 sequence (looked up): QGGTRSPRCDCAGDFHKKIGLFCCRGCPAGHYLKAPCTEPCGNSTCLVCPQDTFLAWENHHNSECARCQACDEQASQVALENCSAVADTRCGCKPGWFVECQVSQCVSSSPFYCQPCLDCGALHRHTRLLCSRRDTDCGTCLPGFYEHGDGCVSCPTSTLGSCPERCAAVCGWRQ
Method: (§1) Primary screening of the scFv library: The primary screen consisted of a single point ELISA (SPE) assay, which was carried out using periplasmic extract (PE) of bacteria grown in 96-well (deep well) plates. Briefly, this capture ELISA involved coating individual wells of a 96-well Maxisorp Immunoplate with anti-c-myc antibody in coating buffer (200 mM Na₂CO₃/NaHCO₃) at pH 9.2 overnight at 4° C. The next day, the plate was blocked with Casein for 1 hour at room temperature. scFv PE was then added to the plate and incubated at room temperature for 1 hour. After washing, biotinylated antigen protein was added to the well and the mixture was incubated for 1 hour at room temperature. This was followed by incubation with streptavidin-horseradish peroxidase (HRP) conjugate for 1 hour at room temperature. HRP activity was detected with tetra-methyl-benzidine (TMB) substrate, and the reaction was quenched with 2M HCl. Plates were read at 450 nm. […] The scFv protein concentration was determined by comparing the ELISA signals with signals generated by the reference scFv. The binding assay was repeated once more for all positive variants under normalized scFv concentrations in order to determine the relative binding affinity of the mutant scFv and the parental antibody. Selected scFv hits displaying improved binding were re-formulated to IgG1 and tested in a caspase-3 assay as described below.

Row | Binder | fold increase in ELISA signal [fold]
1 | B1 | > 10

target: T1, TNFRSF25-Fc fusion protein; assay: binding ELISA of scFv clones on TNFRSF25-Fc (FIG. 10)

Row | Binder | Bmax
2 | B2 | 1.73
3 | B3 | 1.28
4 | B4 | 1.53
5 | B5 | 1.26
6 | B6 | 1.89
7 | B7 | 1.32
8 | B8 | 1.32
9 | B9 | 1.81
10 | B10 | 1.04
11 | B11 | 1.49
12 | B1 | 0.447
13 | B12 | 0.1

target: T1, TNFRSF25-Fc fusion protein; assay: single point capture ELISA, scFv captured by anti-c-myc, biotinylated antigen
Method: as §1

Row | Binder | OD450 [OD450]
14 | B13 | 0.7
15 | B14 | 0.85
16 | B1 | 3.19
17 | B15 | 1.67
18 | B16 | 2.33
19 | B17 | 1.6
20 | B18 | 0.4
